Target: T1, integrin heterodimer αVβ6 (ITGAV-B6) (human, UniProt P06756 31-1048; P18564 22-788)
T1 construct: whole, on cells; Species is read from the 'h' prefix of hITGAV and hITGB6; also called ITGAV-B6 heterodimers; hITGAV and hITGB6
Assay: concluding sentence, resting on the infection and luciferase assay in 293_ITGAV-B6 cells; no direct binding assay

T1 sequence (P06756 31-1048, chain 1 of 2): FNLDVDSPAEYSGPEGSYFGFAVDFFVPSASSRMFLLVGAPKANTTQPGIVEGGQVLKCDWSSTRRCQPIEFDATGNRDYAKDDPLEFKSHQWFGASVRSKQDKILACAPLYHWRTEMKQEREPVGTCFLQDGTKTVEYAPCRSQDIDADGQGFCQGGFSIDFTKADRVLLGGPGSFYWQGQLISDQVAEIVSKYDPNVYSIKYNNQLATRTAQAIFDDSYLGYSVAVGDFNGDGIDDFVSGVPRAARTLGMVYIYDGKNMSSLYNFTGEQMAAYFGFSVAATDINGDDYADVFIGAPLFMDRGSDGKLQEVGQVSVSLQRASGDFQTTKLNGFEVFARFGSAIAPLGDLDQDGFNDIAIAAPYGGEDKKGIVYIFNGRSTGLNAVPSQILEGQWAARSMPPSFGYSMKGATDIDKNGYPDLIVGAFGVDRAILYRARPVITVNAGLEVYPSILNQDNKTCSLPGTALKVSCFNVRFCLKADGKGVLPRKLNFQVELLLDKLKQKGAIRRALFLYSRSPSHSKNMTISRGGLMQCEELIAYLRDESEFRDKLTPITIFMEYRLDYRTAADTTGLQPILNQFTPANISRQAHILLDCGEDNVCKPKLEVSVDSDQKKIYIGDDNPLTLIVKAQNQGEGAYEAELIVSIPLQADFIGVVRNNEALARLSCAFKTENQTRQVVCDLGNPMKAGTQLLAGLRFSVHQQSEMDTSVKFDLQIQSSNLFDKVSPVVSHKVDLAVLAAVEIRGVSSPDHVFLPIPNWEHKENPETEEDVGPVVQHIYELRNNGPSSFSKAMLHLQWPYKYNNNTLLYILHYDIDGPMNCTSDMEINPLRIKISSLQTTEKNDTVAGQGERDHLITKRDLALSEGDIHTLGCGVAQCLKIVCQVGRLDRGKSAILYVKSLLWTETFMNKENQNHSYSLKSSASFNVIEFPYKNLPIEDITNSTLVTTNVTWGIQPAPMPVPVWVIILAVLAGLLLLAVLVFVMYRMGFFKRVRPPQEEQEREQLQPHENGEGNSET
T1 sequence (P18564 22-788, chain 2 of 2): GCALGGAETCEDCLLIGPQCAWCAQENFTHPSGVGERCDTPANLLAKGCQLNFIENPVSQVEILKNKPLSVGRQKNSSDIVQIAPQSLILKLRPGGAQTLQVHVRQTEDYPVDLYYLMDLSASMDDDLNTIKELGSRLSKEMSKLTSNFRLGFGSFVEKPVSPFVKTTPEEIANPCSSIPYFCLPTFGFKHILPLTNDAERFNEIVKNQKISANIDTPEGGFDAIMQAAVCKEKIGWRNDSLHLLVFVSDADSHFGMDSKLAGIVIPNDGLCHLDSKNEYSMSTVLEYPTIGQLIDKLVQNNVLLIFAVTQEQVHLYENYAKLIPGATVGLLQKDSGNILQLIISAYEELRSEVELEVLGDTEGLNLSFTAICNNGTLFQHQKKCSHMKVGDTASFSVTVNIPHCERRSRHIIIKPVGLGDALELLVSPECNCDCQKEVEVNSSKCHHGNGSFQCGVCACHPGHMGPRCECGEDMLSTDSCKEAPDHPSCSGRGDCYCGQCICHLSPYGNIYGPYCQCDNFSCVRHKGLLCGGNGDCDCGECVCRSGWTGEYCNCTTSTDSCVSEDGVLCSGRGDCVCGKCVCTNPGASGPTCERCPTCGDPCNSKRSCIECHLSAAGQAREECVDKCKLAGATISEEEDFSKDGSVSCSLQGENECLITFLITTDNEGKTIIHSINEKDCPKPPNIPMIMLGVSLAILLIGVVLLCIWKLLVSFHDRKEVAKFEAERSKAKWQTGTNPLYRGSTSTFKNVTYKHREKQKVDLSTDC

B1: AAV_Cap9rh74_VR4-4um9.Nat (other)
chain: MAADGYLPDWLEDNLSEGIREWWALKPGAPQPKANQQHQDNARGLVLPGYKYLGPGNGLDKGEPVNAADAAALEHDKAYDQQLKAGDNPYLKYNHADAEFQERLKEDTSFGGNLGRAVFQAKKRLLEPLGLVEEAAKTAPGKKRPVEQSPQEPDSSAGIGKSGAQPAKKRLNFGQTGDTESVPDPQPIGEPPAAPSGVGSLTMASGGGAPVADNNEGADGVGSSSGNWHCDSQWLGDRVITTSTRTWALPTYNNHLYKQISNSTSGGSSNDNAYFGYSTPWGYFDFNRFHCHFSPRDWQRLINNNWGFRPKRLNFKLFNIQVKEVTDNNGVKTIANNLTSTVQVFTDSDYQLPYVLGSAHEGCLPPFPADVFMIPQYGYLTLNDGSQAVGRSSFYCLEYFPSQMLRTGNNFQFSYEFENVPFHSSYAHSQSLDRLMNPLIDQYLYYLSRTQSTDGRGDLGRLGPQQLLFSQAGPNNMSAQAKNWLPGPCYRQQRVSTTLSQNNNSNFAWTGATKYHLNGRDSLVNPGVAMATHKDDEERFFPSSGVLMFGKQGAGKDNVDYSSVMLTSEEEIKTTNPVATEQYGVVADNLQQQNAAPIVGAVNSQGALPGMVWQNRDVYLQGPIWAKIPHTDGNFHPSPLMGGFGMKHPPPQILIKNTPVPADPPTAFNKDKLNSFITQYSTGQVSVEIEWELQKENSKRWNPEIQYTSNYYKSNNVEFAVNTEGVYSEPRPIGTRYLTRNL
notes: Tested as a whole recombinant AAV vector particle packaging CMV-GFP/Luc; also called Cap9rh74_VR4-4um9(LICA.01)
  binding result: binds

B2: AAV_Cap9rh74_VR4-5ffo.Nat (other)
chain: MAADGYLPDWLEDNLSEGIREWWALKPGAPQPKANQQHQDNARGLVLPGYKYLGPGNGLDKGEPVNAADAAALEHDKAYDQQLKAGDNPYLKYNHADAEFQERLKEDTSFGGNLGRAVFQAKKRLLEPLGLVEEAAKTAPGKKRPVEQSPQEPDSSAGIGKSGAQPAKKRLNFGQTGDTESVPDPQPIGEPPAAPSGVGSLTMASGGGAPVADNNEGADGVGSSSGNWHCDSQWLGDRVITTSTRTWALPTYNNHLYKQISNSTSGGSSNDNAYFGYSTPWGYFDFNRFHCHFSPRDWQRLINNNWGFRPKRLNFKLFNIQVKEVTDNNGVKTIANNLTSTVQVFTDSDYQLPYVLGSAHEGCLPPFPADVFMIPQYGYLTLNDGSQAVGRSSFYCLEYFPSQMLRTGNNFQFSYEFENVPFHSSYAHSQSLDRLMNPLIDQYLYYLSRTQSEPRRGDLATIGSQQLLFSQAGPNNMSAQAKNWLPGPCYRQQRVSTTLSQNNNSNFAWTGATKYHLNGRDSLVNPGVAMATHKDDEERFFPSSGVLMFGKQGAGKDNVDYSSVMLTSEEEIKTTNPVATEQYGVVADNLQQQNAAPIVGAVNSQGALPGMVWQNRDVYLQGPIWAKIPHTDGNFHPSPLMGGFGMKHPPPQILIKNTPVPADPPTAFNKDKLNSFITQYSTGQVSVEIEWELQKENSKRWNPEIQYTSNYYKSNNVEFAVNTEGVYSEPRPIGTRYLTRNL
notes: Tested as a whole recombinant AAV vector particle packaging CMV-GFP/Luc
  binding result: binds

Source: EP4536686B1 (GENETHON, dated 2025)
